Entries after “also recorded” stand apart in the source; their conditions may differ.

In one test the test system is RPMI-8226 myeloma cells. As to the kind of experiment: Advanced disseminated RPMI-8226 multiple myeloma model. To be noted: for survival: B11 2 mg/kg i.v. twice weekly for 8 weeks. It is filed as in vivo, SCID mice. Here is the method:
ARH-77 cells or RPMI-8226 were injected intravenously into the SCID mice. (A) ARH-77 model. Animals received intravenous injections with antibody at 2 mg/kg or bortezomib (Velcade) at 0.5 mg/kg on Days 7, 10, 13, and 16 (as indicated by arrows in the graph). (B) RPMI-8226-model. B11 or control mAb was administered i.v at 2 mg/kg, twice weekly for 8 weeks, bortezomid, at 1 mg/kg, once weekly for 8 weeks, lenalidomide p.o with 2 mg/kg for 2 cycles consisting of 5 days of treatment and 2 days of wash out, melphalan i.v at 3 mg/kg, once weekly for 8 weeks, and dexamethasone (DXH) at 6 mg/kg/inj 3 times/week for 2 consecutive weeks. There were 6-10 mice per treatment group. Statistical significance was calculated using Log-rank Graphpad Prism software and determined at ***p<0.001. (C) To study the ICAM-1 level on human cells, the cells from different organs were stained and gated for CD38+/mCD45−/B11+. Left panel indicates the percentage of B11 positive cells in CD38+/mCD45 population and right panel the mean fluorescent intensity of the positive cells.
The anti-myeloma effect of B11 was examined in a disseminated model of multiple myeloma. The early and advanced disseminated model of multiple myeloma was performed at Oncodesign, Dijon, France. Briefly: 1×10^6 (early) or 5×10^6 (advanced) ARH-77 tumor cells in 200 μL of RPMI 1640 were injected intravenously (i.v) into the caudal vein of female scid mice (D0). Tumor cell injections were performed twenty four to forty eight hours after a whole body irradiation of mice (1.8 Gy, ^60Co, INRA, BRETENNIERES). The treatment was started at D5 RPMI-8226 model or D7 (ARH-77 model) […]. B11 or control mAb was administered i.v. at 2 mg/kg, twice weekly for 8 weeks, bortezomib, at 1 mg/kg, once weekly for 8 weeks, lenalidomide p.o with 2 mg/kg for 2 cycles consisting of 5 days of treatment and 2 days of wash out, melphalan i.v. at 3 mg/kg, once weekly for 8 weeks, and dexamethasone at 6 mg/kg 1 injected 3 times a week for 2 consecutive weeks.
200 μl containing 10×10^6 of RPMI 8226 tumour cells was intravenously injected into the caudal vein of female SCID mice. The mice had been subjected to a whole body irradiation of mice (1.8 Gy, ^60Co, BioMEP) 24 to 72 hours prior to cell injection. At D1, tumor injected mice were randomized according to their individual body weight. All treatment started day 5 after tumor cell administration except for ALKERAN®, which started at day 10. All treatments were injected in a dose volume of 10 ml/kg/inj. Mice received one of the following treatments:
Monoclonal anti-ICAM mAb or control mAb was administered i.v in a PBS solution containing at 2 mg/kg, 2 times/week for 8 consecutive weeks. […]

Test [1] relates to ICAM-1 expressing tumor cell lines. Put plainly: Complement-dependent cytotoxicity (CDC) in tumor cell lines. Format: cell-based. To be noted: panel of ICAM-1 expressing tumor cell lines. Here is the method:
Target cells were harvested and incubated in RPMI medium with antibodies at 5 μg/mL or at titrated concentrations between 0.01-100 μg/mL for 60 min on ice. Cells were thereafter washed and resuspended in cold medium before dispension into flow cytometry tubes. Treatments were performed in triplicates. Human serum, normal or heat-inactivated, (Sigma, Sweden) was added to tubes and the samples were incubated for 2 h at 37° C. After completed incubation ToPo-Pro-3 was added at a final concentration of 0.3 μM and cells were analyzed for membrane permeabilization using flow cytometry.

B1: IgG B11: novel human ICAM-1 antibody targeting the B11 epitope, isolated from the naïve antibody library n-CoDeR (antibody, V domains shown)
VH: EVQLLESGGGLVQPGGSLRLSCAASGFTFSNAWMSWVRQAPGKGLEWVAFIWYDGSNKYYADSVKGRFTISRDNSKNTLYLQMNSLRAEDTAVYYCARYSGWYFDYWGQGTLVTVSS
VL: QSVLTQPPSASGTPGQRVTISCTGSSSNIGAGYDVHWYQQLPGTAPKLLIYDNNNRPSGVPDRFSGSKSGTSASLAISGLRSEDEADYYCQSYDSSLSAWLFGGGTKLTVLG
modifications: B11 antibody variable H region; B11 antibody variable L region
With B1, the survival result in the test with RPMI-8226 myeloma cells is listed as “significantly enhanced survival; also recorded: trend towards improved survival in IgG B11 treated mice compared to mice treated with the immunomodulatory drug revlimid”; with RPMI-8226 myeloma cells (listed as B11, 2 mg/kg), “significantly enhances survival; also recorded: highly improved survival”; with RPMI-8226 myeloma cells (listed as anti ICAM-1 mAb), “more effective compared to other SOC single therapies”. Besides, the disease onset entry in the test on RPMI-8226 myeloma cells (B11 2 mg/kg i.v. twice weekly, compared to bortesomib and dexamethasone) is recorded as “delayed disease onset”. In test [1], the “induction of CDC” value is reported as “did not induce CDC”.

Values taken from patent publication US20150352207A1, “USE OF ANTIBODIES AGAINST ICAM-1 IN COMBINATION WITH AN ANTI CANCER DRUG IN THE TREATMENT OF PATIENTS” (BIOINVENT INTERNATIONAL AB, priority 2013, published 2015).
